B1: NBL507-A1L1-P1R2-1B8-(44)-PME207-SEQF_D06 (VHH)
VHH: QVQLVESGGGLVQPEGSLRLSCAASGSIFSIYAMGWYRQAPGKQRGLVAAITSGGDTFYADSVKGRFTISRDNARNTVYLQMNNLKSEDTAVYDCNGAPWGDHAPLVASWGQGTQVTVSS
notes: purified VHH
B2: NBL507-A1L1-P1R2-1B6-(31)-PME207-SEQF_G04 (VHH)
VHH: QVQLVESGGGLVQPGGSLRLSCAASGFTFSPSAMSWARQAPGKGLEWVSGIYSDGSTYYRDSVKGRFTISRDNARNMVYLQMNSLKPEDTAVYYCALGAMREGVYSDLLGQGTQVTVSS
notes: purified VHH
B3: NBL507-A1L1-P1R2-1D2-(9)-PME207-SEQF_A02 (VHH)
VHH: QVQLVESGGGLVQPGGSLRLSCAASGFTFSSSAMSWARQAPGKGLECVSDIYPDGTSSYADSMKGRFTISRDNTRNTMYLQMNVLKPEDTATYYCVIGRGGYAMGDRRLRGQGTQVTVSS
notes: purified VHH
B4: NBL507-A1L1-P1R2-1A1-(1)-PME207-SEQF_A01 (VHH)
VHH: EVQLVESGGGLVQPGGSLRLSCAASGFTFRSSAMSWARQAPGKGLEWVSDIYPDGRTDYADSIKGRFTMSRDNAKNTVYLLMDSLKPEDTAVYHCQVGRYVSGVYYQPRGQGTQVTVSS
notes: purified VHH; also called lAl
B5: NBL507-A1L1-P1R2-1E2-(10)-PME207-SEQF_B02 (VHH)
VHH: EVQLVESGGGLVQPGGSLRLSCAASGSISSIYAMGWYRQAPGKLRELVAAITTGGSTFYRDSVKGRFTISRDNVANTVYLQMNSLKPEDTAVYHCNGAPWGDIAPVAVSWGQGTQVTVSS
notes: purified VHH
B6: NBL507-A2L1-P1R2-1C1-(273)-PME207-SEQF_E11 (VHH)
VHH: QVQLVESGGGLVHPGGSLRLDCAVSERIASFNVMGWYRQAPGQQREVVATITSVGRTYYADSVKGRFTIAKDNDKNTYLQMNSLKPEDTAVYYCKAVIVGTYDTEYWGQGTLVTVSS
notes: purified VHH
B7: NBL507-A2L1-P1R2-1H1-(275)-PME207-SEQF_G11 (VHH)
VHH: B6 VHH with D21A, V24A, A29L, A70F, D74G, N82S, I98T, T101D, Y102V, L112Q
notes: purified VHH
B8: NBL501#007 (VHH)
VHH: QVQLVESGGGLVQPGGSLTLSCAASGFTFSSYYMSWVRQAPGKGPEWVSIISTGGASTVYTDSVKGRFTASRDNAKNTLYLQMNSLKPEDTALYYCVRGNSRSGLIPRAYWGQGTQVTVSS
notes: tested as supernatant in ELISA
B9: NBL501#011 (VHH)
VHH: QVQLVESGGGLVQAGGSLRLSCAVFGNTGAIHAMAWYRQAPGKQREEVARISFGDGRTVYGDSVKGRFTISGDDAKNTMYLQMNILKAEDTAEYYCNAVFLGIGPTGRFEYEYWGQGTQVTVSS
notes: as for B8
B10: NBL501#003 (VHH)
VHH: QVQLVESGGGLVQPGGSLRLSCAASGITLDYYAIGWFRQAPGKEREGVSCISSSGGSTNYADSVKGRFTMSRDNAKNTVYLQMNSLKPEDTAVYYCAADIHCSGYVLFSPSDFGNWGQGTQVTVSS
notes: as for B8
B11: NBL501#006 (VHH)
VHH: QVQLVESGGGLVQAGGSLRLSCAASGSADSIPAMGWYRQAPGKEREYLAAISSGTNTYYASSAKGRFAISRNNANNTLYLQMNSLKPEDTAMYYCATCSSYYYCSGPYVRSWGQGTQVTVSS
notes: as for B8
B12: NBL501#010 (VHH)
VHH: QVKLEESGGGLVQAGGSLRLSCVASGSIFSINAMGWYRRAPGKERELVASISSDGSIYYADSVKGRFTISRDNAKNTLYLQMNSLKPEDTAMYDCAALGVVNVGVRPTLEYIYWGQGTQVTVSS
notes: as for B8
B13: 504#SS10 (Fc fusion, not shown: a dimerising Fc or GST; small tags and cut ends)
VHH: EVQLVESGGGLVQPGASLRLSCTASGSIFSIYAMGWYRQAPGKQRELVAYITSGGSTTYADSVKGRFTISRDNAKNTVYLQMNSLKPEDTAVYYCNRGNYYRDYKPEFWGQGTQVTVSS
notes: VHH-FC construct from HEK293 cells
B14: 504#SS13 (Fc fusion, not shown: a dimerising Fc or GST; small tags and cut ends)
VHH: EVQVVESGGGSVQPGGSLRLSCAASGRGFTEHAMGWYRQSPGKEREFVAGISSGGSTYYADSVKGRFTVSRDSAGNTVALQMDSLKPEDTAVYYCSYKRGRYPDGVSTLEYWGQGTQVTVSS
notes: as for B13
B15: 504#SS9 (Fc fusion)
VHH: EVQLQESGGGLVQAGGSLRLSCAASGRSFSGYAMAWFRQAPGKEREFVAAVNWNGGSTYYADSVKGRFTISRDNAKDTVYLQMNSLKPEDTAVYYCNARPTFGAYYSDYKSGVDYWGQGTQVTVSS
notes: VHH-FC construct from HEK293 cells; not shown: The (G4S)3 linker leading to it is left out with it
B16: 504#SS12 (Fc fusion, not shown: a dimerising Fc or GST; small tags and cut ends)
VHH: EVQVVESGGGLVQPGGSLRLSCAVSGRGFSEHAMGWYRQSPGKQREFVAGVTSYGGTNYADSVKGRFTISRDNVGNTVFLQMNSLKPEDTAVYYCNYKRGHYPDGVSTYEYWGQGTQVTVSS
notes: as for B13

Numbering of substitutions follows the chain as printed. In names and notes the source's numbering stands.

The target of one test is T1, BCMA-Fc (human, UniProt Q02223 1-54).
T1 construct: coating antigen, 1 ug/mL; also called Fc-conjugated human BCMA; not shown: Fc
T1 sequence (looked up): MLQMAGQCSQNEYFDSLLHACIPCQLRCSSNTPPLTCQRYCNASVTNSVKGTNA
The test is described as follows: ELISA, BCMA-Fc coated 1 ug/mL.
In the case of B1, the OD450 is 2.47 OD450.
For B2, the OD450 stood at 2.52 OD450.
Consider B3, for which the OD450 came out at 2.35 OD450.
The same measure, in the same setting: then B4, with 2.47 OD450; and B5, with 2.53 OD450.
On the same count and under the same terms, the same measure for B6: 3.12 OD450; for B7: 3.3 OD450.

For a further test, the target named is T2, BCMA on RPMI8226 cells (UniProt Q02223 1-184, limits assumed).
T2 construct: whole, on cells
T2 sequence (looked up): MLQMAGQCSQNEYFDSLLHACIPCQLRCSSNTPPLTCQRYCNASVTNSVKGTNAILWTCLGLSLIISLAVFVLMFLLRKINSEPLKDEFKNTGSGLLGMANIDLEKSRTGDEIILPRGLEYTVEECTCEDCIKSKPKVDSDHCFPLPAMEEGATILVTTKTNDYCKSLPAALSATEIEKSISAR
The test is described as follows: FACS on RPMI8226 cells.
As for B1, the MFI is 1810 MFI.
Turning to B2, the MFI is 864 MFI.
The same measure, in the same setting: then B3, with 1260 MFI; and B4, with 2420 MFI.
Molecule B5 had an MFI of 2550 MFI.
Same read-out and setting: the same measure for B6: 764 MFI.
Still for that read-out and setting: the same measure for B7: 532 MFI.

The target in the next test is T3, mesothelin (MSLN), full length (UniProt Q13421 296-598, limits assumed).
T3 construct: coating antigen of the ELISA; construct not described
T3 sequence (Q13421 other isoform, or with tags, fused parts or gaps limits assumed): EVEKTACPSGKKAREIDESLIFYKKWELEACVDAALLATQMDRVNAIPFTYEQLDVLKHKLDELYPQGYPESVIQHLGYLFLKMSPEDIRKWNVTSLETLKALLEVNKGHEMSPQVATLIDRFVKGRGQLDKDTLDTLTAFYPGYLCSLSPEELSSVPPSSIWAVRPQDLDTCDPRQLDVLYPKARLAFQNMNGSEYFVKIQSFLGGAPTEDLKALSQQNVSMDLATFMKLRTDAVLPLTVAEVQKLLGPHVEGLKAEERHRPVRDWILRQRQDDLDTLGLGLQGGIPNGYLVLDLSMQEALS
The test is described as follows: ELISA, supernatant. On the technique in general: In an ELISA, binding on a coated surface is turned into a signal by an enzyme label.
Consider B8, for which the binding result is “no binding”.
Still for that read-out and setting: then B9, with “no binding”; and B10, with “no binding”.
The same measure, in the same setting: the same measure for B11: “no binding”; for B12: “no binding”.

Another test concerns the target T4, Anti-His.
T4 construct: ELISA coating control
The test is described as follows: ELISA, Anti-His coated 1 ug/mL.
Consider B1, for which the OD450 turned out to be 1.79 OD450.
The same measure, in the same setting: then B2, with 1.96 OD450; and B3, with 0.57 OD450.
Same read-out and setting: the same measure for B4: 2.1 OD450.
On the same count and under the same terms, the same measure for B5: 2.44 OD450; for B6: 0.71 OD450; for B7: 0.98 OD450.

In another test the target is T5, human IgG.
T5 construct: ELISA coating control
The test is described as follows: ELISA, human IgG coated 1 ug/mL.
Regarding B1, the OD450 is 0.01 OD450.
Still for that read-out and setting: the same measure for B2: 0.03 OD450.
Consider B3, for which the OD450 was determined as 0.02 OD450.
The same measure, in the same setting: then B4, with 0.03 OD450; and B5, with 0.03 OD450.
The same measure, in the same setting: then B6, with 0.03 OD450; and B7, with 0.04 OD450.

Another test deals with T6, PD-1 protein (human, UniProt Q15116 25-167, limits assumed).
T6 construct: also called human PD-1
T6 sequence (Q15116 25-167 limits assumed): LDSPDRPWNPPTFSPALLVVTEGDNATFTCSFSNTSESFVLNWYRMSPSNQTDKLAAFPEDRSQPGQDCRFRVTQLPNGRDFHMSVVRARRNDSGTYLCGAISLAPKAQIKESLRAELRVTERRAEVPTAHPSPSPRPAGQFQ
Kind of test: ELISA, PD-1 coated. The protocol:
2 μg/ml of PD-1 protein is coated on 96-well plates overnight for ELISA binding assay. Recombinant VHH-FC proteins are added to the wells and allowed to stand for a period of time, then 1 μg/ml of HRP-conjugated anti-FC antibody is added as detection antibody and the assay reagents are added. The absorbance is read at 450 nm. Binding of nivolumab serves as a positive control and plates coated with BSA are used as the negative control group.
As for B13, the “OD450 at 0.002 µg/mL” value was found to be 0.03 OD450, the “OD450 at 0.02 µg/mL” value was found to be 0.03 OD450, the “OD450 at 0.2 µg/mL” value was 0.03 OD450 and the “OD450 at 2 µg/mL” value was 0.04 OD450.
On to B14, for which the “OD450 at 0.002 µg/mL” value was determined as 0.03 OD450, the “OD450 at 0.02 µg/mL” value came out at 0.03 OD450, the “OD450 at 0.2 µg/mL” value worked out at 0.03 OD450 and the “OD450 at 2 µg/mL” value turned out to be 0.03 OD450.
Turning to B15, the “OD450 at 0.002 µg/mL” value worked out at 0.03 OD450, the “OD450 at 0.02 µg/mL” value was found to be 0.03 OD450, the “OD450 at 0.2 µg/mL” value was determined as 0.03 OD450 and the “OD450 at 2 µg/mL” value was 0.04 OD450.
For B16, the “OD450 at 0.002 µg/mL” value came to 0.03 OD450, the “OD450 at 0.02 µg/mL” value is 0.03 OD450, the “OD450 at 0.2 µg/mL” value is 0.04 OD450 and the “OD450 at 2 µg/mL” value was 0.07 OD450.

Another test concerns the target T6, PD-1 protein. The test is described as follows: blocking ELISA, PD-1 coated, competitor biotin PD-L1. The protocol: Each well of 96-well microtiter plates is coated with 2 μg/ml of PD-1 protein in PBS and blocked with 1% BSA. […]
The intensity of the developed color is measured at 450 nm. Wells with no added PD-1 and no added VHH-FC are negative and positive controls, respectively.
Take B13: the “OD450 of PD-L1 bound, antibody at 0.15 µg/mL” value stood at 3.27 OD450; the “OD450 of PD-L1 bound, antibody at 0.61 µg/mL” value stood at 3.24 OD450; the “OD450 of PD-L1 bound, antibody at 2.42 µg/mL” value was determined as 3.28 OD450; the “OD450 of PD-L1 bound, antibody at 9.75 µg/mL” value amounted to 3.32 OD450.
On the same counts, the results for B14 are 3.34 OD450, 3.33 OD450, 3.29 OD450 and 3.33 OD450.
On the same counts, the results for B15 are 3.42 OD450, 3.36 OD450, 3.46 OD450 and 3.32 OD450.
In the same order, the values of B16 are 3.22 OD450, 3.2 OD450, 3.27 OD450 and 3.28 OD450.

Another test addresses T7, BCMA-His (human, UniProt Q02223 1-54).
T7 construct: coating antigen, 1 ug/mL; also called His-conjugated human BCMA; not shown: His tag
T7 sequence (looked up): T1 sequence (looked up)
Kind of test: ELISA, BCMA-His coated 1 ug/mL.
B1: the OD450 came out at 2.27 OD450.
Still for that read-out and setting: the same measure for B2: 2.25 OD450; for B3: 2.32 OD450; for B4: 2.37 OD450.
B5 gave an OD450 of 2.37 OD450.
Still for that read-out and setting: then B6, with 2.28 OD450.
On the same count and under the same terms, then B7, with 2.11 OD450.

Another test has as its target T8, EGFR on 293T-EGFR cells (293T cells negative for BCMA expression) (UniProt P00533 25-1210, limits assumed).
T8 construct: whole, on cells; negative control cells; that they carry EGFR is read from the label only
The test is described as follows: FACS on 293T-EGFR cells (BCMA negative).
The molecule B1 had an MFI of 219 MFI.
Same read-out and setting: the same measure for B2: 216 MFI.
Same read-out and setting: then B3, with 222 MFI; and B4, with 230 MFI; and B5, with 227 MFI.
In turn, B6 registered an MFI of 222 MFI.
Same read-out and setting: the same measure for B7: 222 MFI.

The target in another test is T8, EGFR on 293T-EGFR cells (293T cells …). Kind of test: flow cytometry. (In general: A flow cytometer gives signals particle by particle.)
Consider B1, for which the binding result is listed as “no binding”.
Same read-out and setting: then B2, with “no binding”; and B3, with “no binding”; and B4, with “no binding”.
On the same count and under the same terms, then B5, with “no binding”.
Still for that read-out and setting: then B6, with “no binding”; and B7, with “no binding”.

The values above are taken from patent US20230002757A1 (ZHEJIANG NANOMAB TECHNOLOGY CENTER, published 2023).
